Laboratory results reported in patent US20070100561A1 (published 2007).

Biological target: T1, DPP-IV as immobilized on the CM5 surface plasmon resonance sensor (Biacore) (human, UniProt P27487 31-766)
T1 construct: Same recombinant sDPP-IV polypeptide as m1; Amine-coupled, about 10 000 RU; in one flow cell cross-linked with carbodiimide/N-hydroxysuccinimide; also called sDPP-IV
Assay: SPR (Biacore), DPP-IV immobilized on CM5 sensor
Experimental: The organic adlayer on this sensor type consists of carboxymethylated dextran (MW≈100 kDA). […] The surfaces of two flow cells were modified with protein. […] Hepes buffer (0.01 M Hepes, pH 7.4, 0.15 M NaCl, 3 mM EDTA, 0.005% polysorbate 20 (v/v)) was used as the running buffer. […] The final inhibitor solution contained less than 0.1% DMSO. Binding experiments were carried out by contacting the immobilized protein surfaces with inhibitor solutions of varying concentrations at a flow rate of 10 μl/min or 30 μl/min. After each contact with inhibitor, the protein surfaces were regenerated by extensively washing with running buffer.

T1 sequence (P27487 31-766 limits assumed): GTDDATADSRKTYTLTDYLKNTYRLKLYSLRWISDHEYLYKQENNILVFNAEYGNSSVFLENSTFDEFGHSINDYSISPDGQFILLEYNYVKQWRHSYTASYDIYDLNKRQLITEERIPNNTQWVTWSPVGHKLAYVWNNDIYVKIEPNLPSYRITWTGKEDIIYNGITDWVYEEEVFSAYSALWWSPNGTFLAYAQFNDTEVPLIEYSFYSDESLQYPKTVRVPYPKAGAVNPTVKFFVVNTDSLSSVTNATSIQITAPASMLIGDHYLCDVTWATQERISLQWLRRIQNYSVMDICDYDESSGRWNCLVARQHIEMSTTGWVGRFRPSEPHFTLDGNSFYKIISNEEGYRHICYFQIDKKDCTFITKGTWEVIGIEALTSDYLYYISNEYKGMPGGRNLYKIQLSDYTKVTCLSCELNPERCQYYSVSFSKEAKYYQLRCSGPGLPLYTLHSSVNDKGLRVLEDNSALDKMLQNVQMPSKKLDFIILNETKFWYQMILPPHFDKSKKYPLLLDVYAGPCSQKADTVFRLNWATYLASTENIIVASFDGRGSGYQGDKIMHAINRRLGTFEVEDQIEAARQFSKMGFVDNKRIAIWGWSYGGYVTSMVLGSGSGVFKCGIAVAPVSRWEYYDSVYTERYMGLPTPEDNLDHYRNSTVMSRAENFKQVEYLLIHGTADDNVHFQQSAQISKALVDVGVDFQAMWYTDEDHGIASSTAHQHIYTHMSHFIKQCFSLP

Kd: 3.15 nM
koff: 8.75e-05 s⁻¹
kon: 29800 M⁻¹ s⁻¹
B1: adenosine deaminase (ADA; Sigma Type IV, from calf intestinal mucosa) (enzyme, bovine, UniProt P56658 2-357, looked up)
chain: AQTPAFNKPKVELHVHLDGAIKPETILYYGRKRGIALPADTPEELQNIIGMDKPLSLPEFLAKFDYYMPAIAGCREAVKRIAYEFVEMKAKDGVVYVEVRYSPHLLANSKVEPIPWNQAEGDLTPDEVVSLVNQGLQEGERDFGVKVRSILCCMRHQPSWSSEVVELCKKYREQTVVAIDLAGDETIEGSSLFPGHVKAYAEAVKSGVHRTVHAGEVGSANVVKEAVDTLKTERLGHGYHTLEDATLYNRLRQENMHFEVCPWSSYLTGAWKPDTEHPVVRFKNDQVNYSLNTDDPLIFKSTLDTDYQMTKNEMGFTEEEFKRLNINAAKSSFLPEDEKKELLDLLYKAYGMPSPA
notes: Bought protein purified from tissue; also called ADA from bovine
